Publication PMC6220998

Experiments:
[1] = target: KAT1 K+ channel of Arabidopsis, myc-tagged (Arabidopsis) (UniProt Q39128)
[2] = target: KAT1 K+ channel of Arabidopsis, myc-tagged (Arabidopsis) (UniProt Q39128); remark: listed apart in the source

Sequence of UniProt Q39128 (Q39128 whole entry): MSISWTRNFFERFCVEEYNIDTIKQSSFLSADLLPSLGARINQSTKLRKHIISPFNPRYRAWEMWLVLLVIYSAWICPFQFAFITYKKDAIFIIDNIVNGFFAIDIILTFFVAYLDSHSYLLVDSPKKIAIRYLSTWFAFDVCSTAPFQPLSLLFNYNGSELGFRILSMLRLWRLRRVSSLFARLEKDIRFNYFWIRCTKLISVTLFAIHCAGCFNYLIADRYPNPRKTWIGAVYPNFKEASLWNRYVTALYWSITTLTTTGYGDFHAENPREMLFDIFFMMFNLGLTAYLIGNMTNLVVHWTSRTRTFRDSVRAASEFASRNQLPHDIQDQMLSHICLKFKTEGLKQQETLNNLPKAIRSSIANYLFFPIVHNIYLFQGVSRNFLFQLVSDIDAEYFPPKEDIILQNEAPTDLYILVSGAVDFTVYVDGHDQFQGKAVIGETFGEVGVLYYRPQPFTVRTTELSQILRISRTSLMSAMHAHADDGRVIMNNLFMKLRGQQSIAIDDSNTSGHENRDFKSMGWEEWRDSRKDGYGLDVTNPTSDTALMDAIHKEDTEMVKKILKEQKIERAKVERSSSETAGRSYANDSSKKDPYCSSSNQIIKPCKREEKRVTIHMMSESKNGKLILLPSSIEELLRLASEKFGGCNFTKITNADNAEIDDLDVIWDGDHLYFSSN

amount of SYP121^ΔC in the oocyte that gives a near-maximal effect on KAT1 gating (roughly 0.4 ng per oocyte) [1]	single-channel open probability Po of KAT1 at −120 mV after adding 1 μM SYP121^ΔC to inside-out patches [2]	Substance
0.14 µM	–	SYP121^ΔC, cytosolic SNARE domain, expressed in oocytes (domain or fragment)
–	3.4%	SYP121^ΔC, soluble cytosolic domain, recombinant (domain or fragment)
